The values that follow come from publication PMC4175578.

The test addresses N-terminal domain (residues 1-79) of HCV glycoprotein E1 ectodomain, N43Q (Hepatitis C virus, strain H77). In words: SEC-MALS; analytical Superdex S200 10/30 with online static light scattering; protein not deglycosylated, ~4.2 mg/ml. (In general: In gel filtration, larger molecules generally elute earlier.)

As a reminder, the stoichiometry N is the number of molecules, sites or subunits per partner or assembly. In turn, “N-terminal domain (residues 1-79) of HCV glycoprotein E1 ectodomain, N43Q (domain or fragment)” had a stoichiometry N of 2.
